Test results: the nanobody polyreactivity screen of Harvey et al. (2022)

Assay: yeast display, Sf9 membrane polyspecificity reagent, FACS + sequencing; frameworks hold sequencing errors
In short: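 Nanobodies from a synthetic yeast display library (Saccharomyces cerevisiae BJ5465), induced 36–48 hours with galactose, were stained 1 hour at 4 °C with 10% biotinylated, detergent-solubilized Sf9 membrane reagent, enriched on streptavidin microbeads, then FACS-sorted. Anti-HA (expression) and streptavidin (reagent binding) fluorescence set low and high (top ~1%) gates. Polyreactivity labels come from the gate of origin. Genes were colony-PCR amplified, MiSeq 2 × 250 sequenced and filtered by CDR length.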

Sequence | polyreactivity (PSR sort gate)
QVQLVESGGGLVQAGGSLRLTCAASASIFGHNTMGWNREAPGKERELVAAISVSGTRTYYADSVKGRFTISRVNAKNTVYLQMNSLKPEDTAVYYCAAEISRVRQGVAWSYKYEYWGQGTQVTVSS | high polyreactivity
QVQLVESGGGLVQAGGSLRLTCAASGFIFDEYAMGWYRQAPGKERELVAAISWSGSRTYYADSVKGRFTISRDNAKTTVYLQMNSLKPEDTAVYYCAKVTGVGAGRRNYWGQGTQVTVSS | high polyreactivity
QVQLVESGGGLVQAGGSLRLTCAASGFIFKFYAMGWSRQAPGKEREVVAAITSSGGSTYYADSVKGRFTISRDNAKNTVYLQMNSLKPEDTAVYYCAAQFPGVYYYIYDYWGQGTQVTVSS | high polyreactivity
QVQLVESGGGLVQAGGSLRLTCAASGFIFLPYAMGWYRQAPGKERELVAAITRGGRTYYADSVKGRFTISRDNAKNTVYLQMNSLKPEDTAVYYCAATTYLVWGYNYWGQGTQVTVSS | low polyreactivity
QVQLVESGGGLVQAGGSLRLTCAASGFIFNHNAMGWYRQAPGKERELVAAISSGGRTYYADSVKGRFTISRDNAKNTVYLQMNSLKPEDTAVYYCAKDTKYSSQYGKYGYWGQGTQVTVSS | low polyreactivity
QVQLVESGGGLVQAGGSLRLTCAASGFIFPRYAMGWYRQAPGKERELVAAISYSGGSTYYADSVKGRFTISRDNAKNTVYLQMNSLKPEDTAVYYCNKDFPPQGQLRNMYYWGQGTQVTVSS | high polyreactivity
QVQLVESGGGLVQAGGSLRLTCAASGFIFQNYAMGWYIQAPGKERELVSAIDFTDGSKYYADSVKGRYTISRDNAKNSVYLQMNSLKPEDTSVDYCNALDYLYGGIYLEEDYWGQGTQVTVSS | low polyreactivity
QVQLVESGGGLVQAGGSLRLTCAASGFIFSRYTMGWYRQAPGKERELVAAISRRGGNTYYADSVKGRFTISRDNAKNTVYLQMNSLKPEDTAVYYCAADYAWPLRVTGDYWGQGTQVTVSS | low polyreactivity
QVQLVESGGGLVQAGGSLRLTCAASGFIFTYYAMGWYRQAPGKERELVAAISSSGGRTAYADSVKGRYTISRDNAKNTVYLQMNSLKPEDTAVYYCAARIRASGGKDGYNSWGQGTQVTVSS | high polyreactivity
QVQLVESGGGLVQAGGSLRLTCAASGFIFWANAMGWYRPAPGKERELVAAIRYSGGRTYYADSVKGRYTISRDNAKNTVFLQKNSLKPEDTAVYYCAKEYKKYGGFVVENDYWGQGTQVNVSS | low polyreactivity
QVQLVESGGGLVQAGGSLRLTCAASGFILKYYAMGWYRHAPGKERHLVAAITVSGGSTYYADSVKGRFTISRDNAKNTVYLQMNSLKPEDTAVYYCNADYPRGGAGLLDYWGQCTQVTVSS | low polyreactivity
QVQLVESGGGLVQAGGSLRLTCAASGFISSENAMGWYRQAPGKERELVAAISSGGCTNYADSVKGRFTISRDNAKNTVYLQMNSLKEEDTAVYYCAATLPGWYNEDDSWGQGTHVTVSS | low polyreactivity
QVQLVESGGGLVQAGGSLRLTCAASGFNFWDYAMGWYRQAPGKERELFAAISDSGGDTYYADSVKGRFTISRDNAKNTVYLQMNSLKPEDTAVYYCASDVELWVFRGQQYDYWGQGTQVTVSS | low polyreactivity
QVQLVESGGGLVQAGGSLRLTCAASGFTFGSYVMGWYRQAPGKERELVADISIRGGSTYYADSVKGRFTISRDNAKNTVYLQMHSLKPEDTAVYYCNADPAFYYWEGIVGGADYDYWGIGTQVTVSS | low polyreactivity
QVQLVESGGGLVQAGGSLRLTCAASGFTFYLNAMGWYRQAPGKERELVAAITDDGDSTYYADSVKGRFTISRDNAKNTVYLQMNSLKPEDTAVYYCNTVYGPDLDGTEYDYWGQGTQVTVSS | low polyreactivity
QVQLVESGGGLVQAGGSLRLTCAASGFTFYWYTMGWYRQAPGKERELVATISGSGGRTYYADSVKGRFTISRDNAKNTVYLQMNSLKPEDTAVYYCNAGRPYKYGYWGQGTQVTVSS | high polyreactivity
QVQLVESGGGLVQAGGSLRLTCAASGGIFRPNAMGWYRPAPGKERELVASIDDGDSTNYADSVKGPFTISRDNAKNTVSLQMNSLKPEDTAVYYFAAEQGYTVIYDYWGQGSQVTVSS | low polyreactivity
QVQLVESGGGLVQAGGSLRLTCAASGGISLYYVMGWYRQAPGKERELVADISGDDSTNYADSVKGRFTISRDNAKNTVYLQMNSLKPEDTAVYYCAAVPGLFYLPYDYWGQGTQVTVSS | low polyreactivity
QVQLVESGGGLVQAGGSLRLTCAASGGTFRRYTMGWYRQAPGKERELVAVISRSGGSTYYADSVKGRFTISRDNAKNTVYLQMNRLKPEDTAVYYCAVVYYNGYDWGQGTQVTVSS | high polyreactivity
QVQLVESGGGLVQAGGSLRLTCAASGIIFSYNAMGWYRQAPGKERELVAAIRWSGDSTYYADSVKGRFTISRDIAKNTVYLQMNSMKPEDTAVYYCAAEFFLSYPRYEYWGQGTQVTVSS | low polyreactivity
QVQLVESGGGLVQAGGSLRLTCAASGITFGDYALGWYRQAPGKERELVAAITRRSGNTRYADSVKGRFTISRDNAKNTVYLQMNSLKPEDTAVYYCNARWFSYARGFENGYWGQGTQVTVSS | high polyreactivity
QVQLVESGGGLVQAGGSLRLTCAASGITFISYAMGWYIQAPGKERELVAAITKSGGRTYYADSVKGRFTISRDNAKKTVYLQMNSLKPEDTAVYYCAAYHLRDNRIGGGYWGQGTQVTVSS | high polyreactivity

Sequence | polyreactivity (PSR sort gate)
QVQLVESGGGLVQAGGSLRLTCAASGITFYGYAMGWYRQAPGKERELVAAISKSGGSTHYADSVKGRFTISRDNAKNTVYLQMNSLKPEDTAVYYCAAAYWTRLRRMDYWGQGTQVTVSS | low polyreactivity
QVQLVESGGGLVQAGGSLRLTCAASGLIFARNAMGWYRQAPGKDRELVAAISSSGNTYADSVKGRFTISRDNAKNTVYLHMNSLKPEDTAVYYCNAVRRIRVTSTYDYWGQGTQVTVSS | high polyreactivity
QVQLVESGGGLVQAGGSLRLTCAASGLIFRRYAMGWYRQAPGKERELVAAINTSGGSTYYADSVKGRFTISRDNAKNTVYLQMNSLKPEDSAVSYCNTVSPYKYDWGKGTQVTVSS | low polyreactivity
QVQLVESGGGLVQAGGSLRLTCAASGLILYWYAMGLYRQAPGTEMELVAAISISGGSTYYADSVKGRFTISRDNAKNTVYLQMNSLKPEDTAVYYCAAVYFYSWEGDGDYWGQGTQVTVSS | low polyreactivity
QVQLVESGGGLVQAGGSLRLTCAASGLTFLVYALGWYRQEPGKEWEFVATISKSGGRTYYADSVKGRFTISRDNAKNTVYVQMNSLKPEHTAVDYCAAKGYPYGRLWCGYYRYDYWGQGTQVTVSS | high polyreactivity
QVQLVESGGGLVQAGGSLRLTCAASGLTFNHNAMGWCRQAPGKERELVAAISRRGGSTYYADSVKGRFTISRDNAKNTVYLQMNSLKPEDTAVYYCAARRAWSWKIYDYWGQGTQVTVSS | high polyreactivity
QVQLVESGGGLVQAGGSLRLTCAASGLTFNYYAMGWYRQAPGKERELVAAISSDGRTDYADSVKGRFTISRDNAKNTVYLQMNSLKPEDTAVYYCAASWYRWGKSWRQYDYWGQGTQVNVSS | low polyreactivity
QVQLVESGGGLVQAGGSLRLTCAASGLTFSFYAMGWYRQAPGKEWELVAALSKGGGSTSYADSVKGRFTISRDNAKNTFYLQRNSLKPGDTAVYSCAAKDYKAPNKRLYDYWGQGTQVTVSS | high polyreactivity
QVQLVESGGGLVQAGGSLRLTCAASGNIYLYYAMGWYRQAPGKERELVADIDSSGASTYYADSVKGRFTSSRDNAKNTVYLQMNSLKAEDTAVYYCAAEFHWWYAGYDYGYWGQGTQVTVSS | low polyreactivity
QVQLVESGGGLVQAGGSLRLTCAASGNTFVSNAMGWYRQAPGKERELVAAIDSGGSTNYADSVKGRFTISRDNAKNTVYLQMNSLKPEDTAVYYCNRTSVYYYYWGQGTQVTVSS | low polyreactivity
QVQLVESGGGLVQAGGSLRLTCAASGPIFVLYAMGWYRQAPGKERELVAAISTSGGSTYYADSVKGRFTISRDNAKNTVYLQMNSLKPEDTAVYYCAADRSARFLFIQYYPYGMDYWGQGTQVTVSS | high polyreactivity
QVQLVESGGGLVQAGGSLRLTCAASGRIFSSYAMGWYRQAPGKERELVAAITGRDGSTYYADSVKGRFTISRDNAKNTVYLQMNSLKPEETAVYYCAASRFYFPLTFGGYPKLASYDYWGQGTQVTVSS | low polyreactivity
QVQLVESGGGLVQAGGSLRLTCAASGRIFSYYDMGWYRKAPGKERELVARISYSGDSTYYADSVKGRFTISRDNAKNTVYLQMNSLKPEDTAVYYCAAEVDSGYSEYYWGQGTQVTVSS | low polyreactivity
QVQLVESGGGLVQAGGSLRLTCAASGRIFTSYAMGWYRQAPGKERELVATITGSTASTYYADSVKGRFTISRDNAKYTVYLQMNSLKPEDTAVYYCAARSVGKRGYDYWGQCTQVTVSS | high polyreactivity
QVQLVESGGGLVQAGGSLRLTCAASGRIFTTYAMGWYRQAPGKERELVAAISRSGGSTYYADSVKGRFTISRDNAKNTVYLQMNSMKPEDTAVYYCAAVPTSNSFRSSFYYWGQGTQVTVSS | high polyreactivity
QVQLVESGGGLVQAGGSLRLTCAASGRIFYQYAMGWYRQAPGKEMDLVASITTSGGNTYYADSVKGRFTISRDNAKNTVYLQMNSLKPEDTAVYYCAARFNWRQWLYEYWGQGTQVTVSS | low polyreactivity
QVQLVESGGGLVQAGGSLRLTCAASGRIFYYYAMAWYRQAPGKEMELVAAIRRGGFTYYADSVKGRFTISRDNAKNTVYLQMYSLKQEDTAVYYCAAGVSKPNGYYYLRGYERGYWGQGTQVTVSS | high polyreactivity
QVQLVESGGGLVQAGGSLRLTCAASGRILSHYAMVWYIQAPGKERELVATINSGGATYYADSVKGRFTISRDNAKYTVYFQMNSLKPEDTAVYYCAVDYAVSYAGWVLRYDYWGQGTQVTVSS | low polyreactivity
QVQLVESGGGLVQAGGSLRLTCAASGRNFQVYAMGWYRQAPGKERELVAGITRAGSTYYADSVKGRFTISRDNAKNTVYLQLNSLKPEDTAVYYCAASRWHGYNYWGQGTQVTVSS | high polyreactivity
QVQLVESGGGLVQAGGSLRLTCAASGRTFAINVMGWYIQAPGKERELVASIRGRGGRTNYADSVKGRFTISRDNAKNTVYLQMNRLKPEDTAVYYCAASQWWRYDYWGQGTQVTVSS | high polyreactivity
QVQLVESGGGLVQAGGSLRLTCAASGRTFAYNAMGWYRQAPGKERELVAAITSSGTSTYYADSVKGRFTISRDNAKNTVYLQINCLKPEDTAVYYCAGRQSQKYGLFYYWGQGTQVTVSS | high polyreactivity
